Reference: the supplement of paper PMC7125110
± gives the standard error. For part of these data: Fewer inactive variants are shown than the library holds.

B1: glmS ribozyme (parent)
chain: AUAAAAGCGCCAGAACUACAGAAAUGUAGUUGACGAGGAGGAGGUUUAUCGAAUUUUCGGCGGAUGCCUCCAAA

Columns and labels:
Conditions in all cases: with glucosamine-6-phosphate
glucosamine-6-phosphate [1] = variants of: B1; assay: kcat; higher = faster cleavage; RNA array
In short: (§1)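 On sequenced MiSeq chips, barcoded ribozyme variants were made in situ by E. coli RNA polymerase and followed at 37 °C through a hybridised Cy3 probe. Glucosamine-6-phosphate was flowed in at 40 μM to 10 mM in HEPES/KCl/Mg(OAc)2 buffer. Exponential fits to normalised per-tile medians gave kobs, and weighted Michaelis–Menten fits gave kcat and KM.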

glucosamine-6-phosphate [2] = variants of: B1; assay: KM; higher = weaker cofactor use; RNA array
In short: as §1

glucosamine-6-phosphate [3] = variants of: B1; assay: self-cleavage kobs at 40 uM GlcN6P; higher = faster cleavage; RNA array
In short: as §1

glucosamine-6-phosphate [4] = variants of: B1; assay: self-cleavage kobs at 160 uM GlcN6P; higher = faster cleavage; RNA array
In short: as §1

glucosamine-6-phosphate [5] = variants of: B1; assay: self-cleavage kobs at 640 uM GlcN6P; higher = faster cleavage; RNA array
In short: as §1

glucosamine-6-phosphate [6] = variants of: B1; assay: self-cleavage kobs at 2500 uM GlcN6P; higher = faster cleavage; RNA array
In short: as §1

glucosamine-6-phosphate [7] = variants of: B1; assay: self-cleavage kobs at 10000 uM GlcN6P; higher = faster cleavage; RNA array
In short: as §1

Variant | kcat (glucosamine-6-phosphate [1]) [s⁻¹] | KM (glucosamine-6-phosphate [2]) [µM] | self-cleavage kobs at 40 uM GlcN6P (glucosamine-6-phosphate [3]) [s⁻¹] | self-cleavage kobs at 160 uM GlcN6P (glucosamine-6-phosphate [4]) [s⁻¹] | self-cleavage kobs at 640 uM GlcN6P (glucosamine-6-phosphate [5]) [s⁻¹] | self-cleavage kobs at 2500 uM GlcN6P (glucosamine-6-phosphate [6]) [s⁻¹] | self-cleavage kobs at 10000 uM GlcN6P (glucosamine-6-phosphate [7]) [s⁻¹]
U46C A53C | 0.002 ± 0.00044 | 1380 ± 480 | 7.57e-05 ± 1.7e-05 | 0.000151 ± 4e-05 | 0.000706 ± 0.00013 | 0.00155 ± 0.00033 | 0.00162 ± 0.0003
U45G G66U | 0.0036 ± 0.00029 | 4540 ± 530 | 3.62e-05 ± 1.2e-05 | 0.00012 ± 2.8e-05 | 0.00042 ± 7.6e-05 | 0.0014 ± 0.00027 | 0.00245 ± 0.00032
G44C U47G G66U C67G | 0.000596 ± 0.00019 | – | – | – | 0.000152 ± 5e-05 | 0.000668 ± 0.00032 | 0.000455 ± 0.00013
G44U U47A | 0.00016 ± 1.2e-05 | 1850 ± 460 | – | – | 4.97e-05 ± 2.4e-05 | 9.01e-05 ± 1.7e-05 | 0.000136 ± 1.6e-05
G44U U47G | 1.56e-05 ± 2.1e-07 | 2560 ± 150 | – | – | – | – | –
G44U G66A | 0.000401 ± 9.1e-05 | – | – | – | 0.000153 ± 3.3e-05 | 0.000236 ± 4.4e-05 | 0.000438 ± 0.0001
U46G U69G | 7.96e-05 ± 5.9e-06 | – | 5.51e-05 ± 9.4e-06 | 7.35e-05 ± 1.7e-05 | 0.000111 ± 1.6e-05 | 7.44e-05 ± 1.1e-05 | 7.71e-05 ± 5.3e-06
U45G C71G | 0.000564 ± 5.3e-05 | 2510 ± 370 | – | 3.29e-05 ± 1.3e-05 | 0.000112 ± 1.2e-05 | 0.000322 ± 5.2e-05 | 0.000432 ± 6.3e-05
A42U U65G | 0.000343 ± 2.8e-05 | 3030 ± 500 | – | – | 5.7e-05 ± 1e-05 | 0.000165 ± 1.9e-05 | 0.000257 ± 2.8e-05
G43U U56A | 1.76e-05 ± 3.4e-06 | – | < 1e-05 | – | – | – | –
G44U A52U | 1.54e-05 ± 1.1e-06 | – | < 1e-05 | – | < 1e-05 | – | –
G44A A53G | 0.000575 ± 4.5e-05 | 2460 ± 440 | – | – | 0.000116 ± 2.3e-05 | 0.000319 ± 6.7e-05 | 0.000456 ± 4.8e-05
G43A C67A | 0.00175 ± 0.00022 | 976 ± 200 | 7.15e-05 ± 1.3e-05 | 0.000242 ± 6.6e-05 | 0.000611 ± 0.00013 | 0.00156 ± 0.00025 | 0.00147 ± 0.00026
U47A U57A | 0.000331 ± 5.6e-05 | 6360 ± 1900 | – | – | 3.47e-05 ± 9.4e-06 | 8.34e-05 ± 2e-05 | 0.000205 ± 2.7e-05
A42U U47G | 3.95e-05 ± 1.3e-06 | 6570 ± 510 | < 1e-05 | – | – | – | 2.38e-05 ± 9e-06
G43C C67A | 0.000634 ± 8.3e-05 | 1520 ± 410 | – | 4.22e-05 ± 1.1e-05 | 0.000205 ± 2e-05 | 0.000479 ± 5.7e-05 | 0.00052 ± 4.3e-05

Variant | kcat (glucosamine-6-phosphate [1]) [s⁻¹] | KM (glucosamine-6-phosphate [2]) [µM] | self-cleavage kobs at 40 uM GlcN6P (glucosamine-6-phosphate [3]) [s⁻¹] | self-cleavage kobs at 160 uM GlcN6P (glucosamine-6-phosphate [4]) [s⁻¹] | self-cleavage kobs at 640 uM GlcN6P (glucosamine-6-phosphate [5]) [s⁻¹] | self-cleavage kobs at 2500 uM GlcN6P (glucosamine-6-phosphate [6]) [s⁻¹] | self-cleavage kobs at 10000 uM GlcN6P (glucosamine-6-phosphate [7]) [s⁻¹]
G43U U55C | 3.2e-05 ± 2.4e-06 | – | – | – | – | 3.2e-05 ± 1.2e-05 | 3.01e-05 ± 8.7e-06
U45G A53C | 0.00249 ± 0.00031 | 1820 ± 370 | 5.63e-05 ± 8.5e-06 | 0.000176 ± 3.1e-05 | 0.000627 ± 0.00012 | 0.00179 ± 0.00022 | 0.00197 ± 0.00021
G44C U55C | 3.25e-05 ± 2.5e-06 | – | – | – | 2.79e-05 ± 1.3e-05 | – | –
G44U U55C | 9.04e-05 ± 3.7e-06 | 8390 ± 750 | – | < 1e-05 | – | – | 4.92e-05 ± 1.3e-05
G44U U55G | 0.000311 ± 3.4e-05 | 1860 ± 400 | – | – | 7.46e-05 ± 1.3e-05 | 0.000204 ± 3.6e-05 | 0.00025 ± 4.1e-05
A42U A52U | 3e-05 ± 6.8e-07 | 2350 ± 200 | – | < 1e-05 | < 1e-05 | – | 2.43e-05 ± 9.1e-06
U45C U55A | 0.00681 ± 0.0026 | 5900 ± 2800 | 5.89e-05 ± 1.4e-05 | – | 0.000581 ± 0.00013 | 0.00182 ± 0.00067 | 0.00457 ± 0.0012
U46A C67G | 0.000319 ± 2.1e-05 | 2290 ± 290 | – | – | 6.75e-05 ± 1.1e-05 | 0.000187 ± 3.5e-05 | 0.000254 ± 3.3e-05
U46A C67A | 0.00257 ± 0.00048 | 1060 ± 330 | 8.65e-05 ± 2.9e-05 | – | 0.000988 ± 0.0002 | 0.00266 ± 0.00097 | 0.00209 ± 0.0006
U45G C67U | 0.00709 ± 0.0025 | 2100 ± 1100 | 0.000204 ± 3.5e-05 | 0.000462 ± 6.3e-05 | 0.00181 ± 0.00028 | 0.00248 ± 0.00057 | 0.00733 ± 0.00094
U45G C67G | 0.000915 ± 0.00011 | 1420 ± 340 | 3.25e-05 ± 1.2e-05 | 7.93e-05 ± 2.7e-05 | 0.000303 ± 4.8e-05 | 0.000477 ± 0.00011 | 0.000846 ± 0.00011
G44A C71U | 9.17e-05 ± 8.5e-06 | 1020 ± 370 | – | – | 2.9e-05 ± 1e-05 | 7.37e-05 ± 9.8e-06 | 7.95e-05 ± 9.2e-06
G44A U54G | 0.000522 ± 0.00012 | – | – | – | 0.000231 ± 7.3e-05 | 0.000634 ± 0.00013 | 0.000438 ± 6.2e-05
A42U C50G | < 1e-05 | – | < 1e-05 | – | – | – | < 1e-05
U45G U54G | 0.0116 ± 0.0048 | – | 0.000213 ± 3.6e-05 | 0.000252 ± 9.5e-05 | 0.00187 ± 0.00046 | 0.00436 ± 0.0015 | 0.0084 ± 0.0012
